In publication PMC8861645:

Target: PggH (phosphoguanylyl guanylate hydrolase), VCA0593 of Vibrio cholerae (Vibrio cholerae El Tor N16961)
Test: SEC

PggH (phosphoguanylyl guanylate hydrolase), VCA0593 of Vibrio cholerae (enzyme)
stoichiometry N: 2
